The supplement of paper PMC10899765

test system: MCF10A; test: 5+ nucleoli phenotype percent effect (relative to siNT 0% and siKIF11 100%); higher = more cells with five or more nucleoli; settings: 20 nM; 72 h
Method: (§1)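 After 72 h, cells were fixed and stained with Hoechst and anti-fibrillarin, and nucleoli per nucleus were counted with CellProfiler. Values are plate-adjusted percent effect for the one-nucleolus and 5+ nucleoli phenotypes, normalised to siNT (0%) and to the positive controls siNOL11 or siKIF11 (100%), as the mean of biological triplicates. Percent viability is the nuclei count relative to siNT.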

Row | Sequence | 5+ nucleoli phenotype percent effect
1 | CGAGCCUCAAGCAAGGGACUU [hsa-miR-2114-3p] | -15.9%
2 | CCUAGACACCUCCAGUUC [hsa-miR-4305] | -1.06%
3 | AGCUACAGUUACUUUUGCACCA [hsa-miR-548v] | -8.87%
4 | CUUCCGCCCCGCCGGGCGUCG [hsa-miR-718] | 30.6%
5 | UGUGACUGGUUGACCAGAGGGG [hsa-miR-134] | -26.5%
6 | UAGCAGCACAUCAUGGUUUACA [hsa-miR-15b-5p] | -4.86%
7 | UGAGAACUGACAAAUGUGGUAGG [hsa-miR-7153-5p] | 14%
8 | GGGAUGGUAGACCGGUGACGUGC [hsa-miR-1193] | -23%
9 | AAGUUGGCUGCAGUUAAGGUGG [hsa-miR-4715-5p] | -13.4%
10 | GAGUGUAGUUCUGAGCAGAGC [hsa-miR-4280] | -17.9%
11 | CAAAUAAUACCACAGUGGGUGU [hsa-miR-5692a] | 46.5%
12 | AUAAGACGAACAAAAGGUUUGU [hsa-miR-208b] | 3.95%
13 | UUAUGGUUUGCCUGGGACUGAG [hsa-miR-584-5p] | 35%
14 | AUUCUCUCUGGAUCCCAUGGAU [hsa-miR-4768-5p] | -2.49%
15 | CCUCACCAUCCCUUCUGCCUGC [hsa-miR-6511a-3p] | 24.1%
16 | AAUGCACCUGGGCAAGGAUUCA [hsa-miR-502-3p] | -10.4%
17 | AUGACCUAUGAAUUGACAGAC [hsa-miR-215] | -16.4%
18 | AGAGAUUGGUAGAAAUCAGGU [hsa-miR-5186] | -25.3%
19 | UAUGCAUUGUAUUUUUAGGUCC [hsa-miR-586] | 54%
20 | UGGGCGUAUCUGUAUGCUA [hsa-miR-585] | -5.6%
21 | UGGGGCGGAGCUUCCGGAG [hsa-miR-3180] | -11.7%
22 | UGCUUCCUUUCAGAGGGU [hsa-miR-516a-3p] | -23%
23 | GCUGCGGGCUGCGGUCAGGGCG [hsa-miR-4734] | 8.16%

test system: MCF10A; test: one-nucleolus phenotype percent effect (relative to siNT 0% and siNOL11 100%); higher = more cells with one nucleolus (ribosome biogenesis inhibition); settings: 20 nM; 72 h
Method: as §1

Row | Sequence | one-nucleolus phenotype percent effect
24 | UUAGGCCAUCAUCCCAUUAUGC [hsa-miR-5704] | -23.2%
25 | GAACCCAUGAGGUUGAGGCUGCAGU [hsa-miR-1273d] | 3.74%
26 | CCUAUUCUUGAUUACUUGUUUC [hsa-miR-26a-2-3p] | -7.71%
27 | UUGCCAGGGCAGGAGGUGGAA [hsa-miR-5006-5p] | 0.389%
28 | UGGGAGGGCGUGGAUGAUGGUG [hsa-miR-6785-5p] | -4.23%
29 | UAGGACUGUGCUUGGCACAUAG [hsa-miR-3169] | 1.07%
30 | GGGCUGGGGCGCGGGGAGGU [hsa-miR-5787] | -30.8%
31 | UCGGGCGCAAGAGCACUGCAGU [hsa-miR-6499-5p] | 0.719%
32 | UGGGGCGGGGCAGGUCCCUGC [hsa-miR-6816-5p] | -19%
33 | CGGAUGAGCAAAGAAAGUGGUU [hsa-miR-1255b-5p] | -12.5%
34 | UGUGGACAGUGAGGUAGAGGGAGU [hsa-miR-3138] | -2.72%
35 | CCUGGGCAGCGUGUGGCUGAAGG [hsa-miR-3187-5p] | -3.44%
36 | GUGGUCUCUUGGCCCCCAG [hsa-miR-6848-3p] | -17.9%
37 | UGAGGCGGGGGGGCGAGC [hsa-miR-6087] | 15.3%
38 | AACAUUCAUUGCUGUCGGUGGGU [hsa-miR-181b-5p] | 1.83%
39 | UAAAGACUGUAGAGGCAACUGGU [hsa-miR-7161-5p] | -23.4%
40 | AGCCUGGAAGCUGGAGCCUGCAGU [hsa-miR-1254] | 10.5%
41 | UUUUGUGUCUCCCAUUCCCCAG [hsa-miR-5010-3p] | -9.03%
42 | UGUGGAAGGUAGACGGCCAGAGA [hsa-miR-3190-3p] | 42.7%
43 | AUCAUAUGAACCAAACUCUAAU [hsa-miR-5007-3p] | -22.4%
44 | UGUCUACUACUGGAGACACUGG [hsa-miR-934] | 22.5%
45 | UGAGUGCCGGUGCCUGCCCUG [hsa-miR-1909-5p] | 18.8%
46 | CGAGCCUCAAGCAAGGGACUU [hsa-miR-2114-3p] | 19.8%

Row | Sequence | one-nucleolus phenotype percent effect
47 | CCUAGACACCUCCAGUUC [hsa-miR-4305] | -1.35%
48 | AGCUACAGUUACUUUUGCACCA [hsa-miR-548v] | -5.59%
49 | CUUCCGCCCCGCCGGGCGUCG [hsa-miR-718] | -13.8%
50 | UGUGACUGGUUGACCAGAGGGG [hsa-miR-134] | 31.9%
51 | UAGCAGCACAUCAUGGUUUACA [hsa-miR-15b-5p] | 26.9%
52 | UGAGAACUGACAAAUGUGGUAGG [hsa-miR-7153-5p] | -18.9%
53 | GGGAUGGUAGACCGGUGACGUGC [hsa-miR-1193] | 19.2%
54 | AAGUUGGCUGCAGUUAAGGUGG [hsa-miR-4715-5p] | -2.6%
55 | GAGUGUAGUUCUGAGCAGAGC [hsa-miR-4280] | 18.3%
56 | CAAAUAAUACCACAGUGGGUGU [hsa-miR-5692a] | -17.8%
57 | AUAAGACGAACAAAAGGUUUGU [hsa-miR-208b] | 2.18%
58 | UUAUGGUUUGCCUGGGACUGAG [hsa-miR-584-5p] | -25.7%
59 | AUUCUCUCUGGAUCCCAUGGAU [hsa-miR-4768-5p] | -12.2%
60 | CCUCACCAUCCCUUCUGCCUGC [hsa-miR-6511a-3p] | -11.2%
61 | AAUGCACCUGGGCAAGGAUUCA [hsa-miR-502-3p] | 0.707%
62 | AUGACCUAUGAAUUGACAGAC [hsa-miR-215] | 45.7%
63 | AGAGAUUGGUAGAAAUCAGGU [hsa-miR-5186] | 28.7%
64 | UAUGCAUUGUAUUUUUAGGUCC [hsa-miR-586] | -12.9%
65 | UGGGCGUAUCUGUAUGCUA [hsa-miR-585] | 41.1%
66 | UGGGGCGGAGCUUCCGGAG [hsa-miR-3180] | 10.4%
67 | UGCUUCCUUUCAGAGGGU [hsa-miR-516a-3p] | -10.2%
68 | GCUGCGGGCUGCGGUCAGGGCG [hsa-miR-4734] | -5.38%
